The target of one assay is Vav2 (UniProt P52735). Kind of assay: biotin-peptide streptavidin pull-down from lysate. To be noted: reference: non-phosphorylated peptide; sites Y14.
In assay [1] the target is Phospholipase Cγ1 (PLCγ1) (UniProt P19174). Kind of assay: biotin-peptide streptavidin pull-down from lysate. To be noted: reference: non-phosphorylated peptide; sites Y14.
Assay [2] addresses T1, SH2 domain of Phospholipase Cγ1 (recombinant, on protein microarray) (human).
T1 chain: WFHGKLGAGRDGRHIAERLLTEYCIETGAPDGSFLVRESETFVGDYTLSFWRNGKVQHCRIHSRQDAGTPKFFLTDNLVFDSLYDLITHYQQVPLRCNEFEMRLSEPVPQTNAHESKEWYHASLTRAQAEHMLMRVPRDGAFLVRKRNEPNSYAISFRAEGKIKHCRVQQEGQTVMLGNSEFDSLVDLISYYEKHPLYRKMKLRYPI
Kind of assay: tandem NC SH2 domains.

Assay [3] has as its target T2, SH2 domain of Abl1 (recombinant, on protein microarray) (human, UniProt P00519 127-217).
T2 construct: Abl1, human, SH2 domain
T2 sequence (looked up): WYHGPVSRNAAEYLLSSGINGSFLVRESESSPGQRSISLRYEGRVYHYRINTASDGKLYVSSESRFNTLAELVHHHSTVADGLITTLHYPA
Nature of the assay: peptide or protein array; recombinant human SH2 and PTB domains spotted on protein microarrays; probed in duplicate with eight concentrations of fluorescently labeled peptide, 10 nM to 5 µM; fluorescence fit to a saturation binding equation. To be noted: both partners purified.

Assay [4] concerns the target T3, SH2 domain of SH2D3C (recombinant, on protein microarray) (human, UniProt Q8N5H7 220-319).
T3 construct: SH2D3C, human, SH2 domain
T3 sequence (looked up): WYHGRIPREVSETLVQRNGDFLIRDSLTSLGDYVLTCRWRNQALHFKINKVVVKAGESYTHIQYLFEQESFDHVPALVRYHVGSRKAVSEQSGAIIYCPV
The assay is described as above. To be noted: both partners purified.

Assay [5] has as its target T4, SH2 domain of Abl2 (recombinant, on protein microarray) (human, UniProt P42684 173-263).
T4 construct: Abl2, human, SH2 domain
T4 sequence (looked up): T2 sequence (looked up) with N9S, G18L, R35L, A53T, S54A, L58V, S61T, S62A, N67S, I84V
Described as above. To be noted: both partners purified.

In assay [6] the target is T5, SH2 domain of Phospholipase Cγ1 (recombinant, on protein microarray) (human).
T5 chain: T1 chain
Described as above. To be noted: both partners purified.

The target of assay [7] is T6, SH2 domain of Grb10 (recombinant, on protein microarray) (human, UniProt Q13322 493-574).
T6 construct: Grb10, human, SH2 domain
T6 sequence (looked up): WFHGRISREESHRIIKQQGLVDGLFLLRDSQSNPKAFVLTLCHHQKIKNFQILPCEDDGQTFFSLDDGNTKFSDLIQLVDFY
Described as above. To be noted: both partners purified.

The target of assay [8] is T7, SH2 domain of the RhoA GEF Vav2 (recombinant, on protein microarray) (human, UniProt P52735 673-767).
T7 construct: Vav2, human, SH2 domain
T7 sequence (looked up): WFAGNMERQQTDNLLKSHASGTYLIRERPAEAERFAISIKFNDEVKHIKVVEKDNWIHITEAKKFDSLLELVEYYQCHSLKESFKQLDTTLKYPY
Described as above. To be noted: both partners purified.

In assay [9] the target is T8, SH2 domain of Abl1 (recombinant, on protein microarray) (human, UniProt P00519 127-217).
T8 chain: T2 sequence (looked up)

The target in assay [10] is T9, SH2 domain of SH2D3C (recombinant, on protein microarray) (human, UniProt Q8N5H7 220-319).
T9 chain: T3 sequence (looked up)

In assay [11] the target is T10, SH2 domain of Grb10 (recombinant, on protein microarray) (human, UniProt Q13322 493-574).
T10 chain: T6 sequence (looked up)

The target in assay [12] is T11, SH2 domain of Abl2 (recombinant, on protein microarray) (human, UniProt P42684 173-263).
T11 chain: T2 sequence (looked up) with N9S, G18L, R35L, A53T, S54A, L58V, S61T, S62A, N67S, I84V

A further assay deals with T12, RasA1 (Homo sapiens).
T12 chain: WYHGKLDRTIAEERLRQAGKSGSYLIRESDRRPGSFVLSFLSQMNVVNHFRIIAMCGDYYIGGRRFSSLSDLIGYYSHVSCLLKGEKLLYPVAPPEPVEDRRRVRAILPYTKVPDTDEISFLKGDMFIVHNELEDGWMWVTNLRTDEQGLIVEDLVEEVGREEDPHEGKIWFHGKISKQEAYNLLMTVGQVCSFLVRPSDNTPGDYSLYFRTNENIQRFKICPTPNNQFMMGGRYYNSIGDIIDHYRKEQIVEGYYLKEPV

Substitutions are numbered along the chain they refer to. Where two headings read alike, the source gives them in different places. Where no end group is shown, it is not given here. [ ]: non-standard residue; d: D form. pY = N[C@@H](Cc1ccc(OP(=O)(O)O)cc1)C(=O)O Bounds are passed on as bounds.

We go through three molecules from PMC2927421, “Tyrosine-Phosphorylated Caveolin-1 Blocks Bacterial Uptake by Inducing Vav2-RhoA-Mediated Cytoskeletal Rearrangements” (PLoS Biology, 2010).

On to “caveolin-1 (Cav1) 7-21 (from UniProt Q03135) pTyr14 peptide”, for which the “binding against the reference” value (in the assay with Vav2; in assay [1]) was “stronger” throughout.

B1: fluorescently labeled Tyr14-Cav1 phosphopeptide (residues 5-22 of Cav1, phosphorylated on Tyr14) (peptide, UniProt Q03135 5-22, looked up)
peptide: KYVDSEGHL[pY]TVPIREQG
modifications: also: fluorescent label (position not given here)
notes: caveolin-1 (Cav1), human, residues 5-22; also called Tyr14-Cav1 phosphopeptide (18 amino acids); source: synthetic peptide, purified to >95% by preparative reverse phase HPLC
Consider B1, for which the dissociation constant (Kd) (usually the constant that tells how readily two partners part at equilibrium) is 0.482 µM in assay [2]; below 2 µM in assay [3]; below 2 µM in [4]; below 2 µM in assay [5]; below 2 µM in [6]; below 2 µM in [7]. Moreover, the Kd in assay [8] turned out to be 0.222 µM; in assay [9], 1.64 µM; in [10], 0.874 µM; in [11], 1.37 µM; in assay [12], 0.058 µM.
KYVDSEGHLYTVPIREQG (also: fluorescent label (position not given here)) [fluorescently labeled non-phosphorylated Cav1 peptide (residues 5-22 of Cav1)] gave a Kd with RasA1 of 1.39 µM.
